# Experimental data from patent publication EP2830663B1 (Sorrento Therapeutics, Inc., dated 2019).
# Target: VEGFR2 on HUVECs (UniProt P35968 20-1356, limits assumed)
# Assay: cell-based or functional assay
# VEGFR2 on HUVECs, sequence (P35968 20-1356 limits assumed): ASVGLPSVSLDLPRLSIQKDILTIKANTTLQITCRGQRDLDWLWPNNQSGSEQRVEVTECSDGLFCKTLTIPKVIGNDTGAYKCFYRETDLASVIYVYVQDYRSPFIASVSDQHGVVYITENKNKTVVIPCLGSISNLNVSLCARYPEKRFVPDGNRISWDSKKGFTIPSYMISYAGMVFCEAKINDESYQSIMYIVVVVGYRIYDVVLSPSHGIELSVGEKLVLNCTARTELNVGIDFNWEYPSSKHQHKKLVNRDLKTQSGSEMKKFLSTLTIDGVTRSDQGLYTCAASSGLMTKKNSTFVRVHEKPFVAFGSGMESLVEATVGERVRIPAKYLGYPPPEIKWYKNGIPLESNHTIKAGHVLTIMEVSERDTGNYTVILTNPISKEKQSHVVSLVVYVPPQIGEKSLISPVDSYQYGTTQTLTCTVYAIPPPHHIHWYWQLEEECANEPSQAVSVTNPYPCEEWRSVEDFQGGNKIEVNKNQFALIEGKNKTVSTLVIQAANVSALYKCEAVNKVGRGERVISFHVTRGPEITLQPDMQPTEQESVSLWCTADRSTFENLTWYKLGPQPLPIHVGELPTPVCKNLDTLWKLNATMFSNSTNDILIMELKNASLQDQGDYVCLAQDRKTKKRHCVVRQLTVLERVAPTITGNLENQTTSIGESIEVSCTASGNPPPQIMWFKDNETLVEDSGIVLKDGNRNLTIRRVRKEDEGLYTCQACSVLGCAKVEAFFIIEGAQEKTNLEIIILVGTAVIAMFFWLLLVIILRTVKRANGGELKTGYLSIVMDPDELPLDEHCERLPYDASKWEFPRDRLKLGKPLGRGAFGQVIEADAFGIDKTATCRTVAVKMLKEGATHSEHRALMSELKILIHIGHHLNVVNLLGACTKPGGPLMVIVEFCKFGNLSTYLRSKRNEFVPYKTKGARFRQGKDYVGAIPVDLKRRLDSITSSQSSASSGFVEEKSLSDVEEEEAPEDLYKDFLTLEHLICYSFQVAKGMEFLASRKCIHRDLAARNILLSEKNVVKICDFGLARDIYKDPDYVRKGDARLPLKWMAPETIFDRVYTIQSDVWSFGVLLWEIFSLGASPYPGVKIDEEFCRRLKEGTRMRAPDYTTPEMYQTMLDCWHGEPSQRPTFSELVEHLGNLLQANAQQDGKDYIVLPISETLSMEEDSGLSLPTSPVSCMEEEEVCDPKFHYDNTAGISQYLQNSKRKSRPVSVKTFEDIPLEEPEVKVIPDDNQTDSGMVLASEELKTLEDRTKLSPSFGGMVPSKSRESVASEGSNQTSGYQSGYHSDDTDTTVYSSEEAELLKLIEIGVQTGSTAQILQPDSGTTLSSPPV
binder,measurement,value
"VK-B8 (antibody, V domains shown) VH: QVQLVQSGAEVKKPGSSVKVSCKAYGGTFGSYGVSWVRRAPGQGLEWMGRLIPIFGTRDYAQKFQGRVTLTADESTNTAYMELSSLRSEDTAVYYCARDGDYYGSGSYYGMDVWGQGTLVTVSS VL: ETTLTQSPATLSVSPGERATVSCRASQSLGSNLGWFQQKPGQAPRLLIYGASTRATGIPARFSGSGSGTEFTLTISSLQSEDFAVYFCQQYNDWPITFGQGTRLEIK","IC50, inhibition of VEGF-induced HUVEC cell migration (Figure 14)",530 pM
same,"IC50, inhibition of VEGF-induced HUVEC cell proliferation (Figure 13)",14900 pM
same,"IC50, inhibition of VEGF-induced HUVEC migration (modified Boyden chamber)",500 pM
same,"IC50, inhibition of VEGF-induced HUVEC proliferation",14000 pM
same,"IC50, inhibition of VEGF-induced p44/p42 MAPK (Erk1/2) phosphorylation in HUVECs (ELISA)",80 pM
